Key:
[1] = target: HA-tagged Atp1a3 T705A (mouse) (UniProt Q8VCE0); experiment: co-IP; HEK 293T cells co-transfected with HA-tagged Atp1a3 (WT, TA or TD) and YFP-β1 or YFP-β2; α3 precipitated with anti-HA beads (clone 3F10) 2 h at 4°C in IP buffer (20 mM Tris pH 8.0, 150 mM NaCl, 1% NP40, 10% glycerol); β detected with a GFP antibody; band densitometry normalised to WT
[2] = target: HA-tagged Atp1a3 T705D (mouse) (UniProt Q8VCE0); experiment: as above

Row | Substance | co-precipitated higher (complex-glycan) β band, relative intensity normalized to WT (normalized to WT) [1] | co-precipitated lower (intracellular) β band, relative intensity normalized to WT (normalized to WT) [1] | co-precipitated higher (complex-glycan) β band, relative intensity normalized to WT (normalized to WT) [2] | co-precipitated lower (intracellular) β band, relative intensity normalized to WT (normalized to WT) [2]
1 | YFP-tagged Na,K-ATPase β1 subunit (rat) (from UniProt P07340 1-304) (natural protein) | 58.3 | 101 | 6.59 | 95
2 | YFP-tagged Na,K-ATPase β2 subunit (human) (from UniProt P14415 1-290) (natural protein) | 16.3 | 82.7 | 2.81 | 80.5
